Laboratory results taken from patent US9708383 (Novo Nordisk, dated 2017).
*1 amine or outer side, *2 acyl side, *3 side chain or, on linkers, in order; H or OH if unused. Where no end group is shown, it is not given here. Side-chain parts run from the residue outwards. [ ]: non-standard residue; d: D form. The star is where a group is joined. 9‑(4-carboxyphenoxy)nonanoyl = O=C(O)c1ccc(OCCCCCCCCC(=O)*)cc1; Decanoyl(10-(4-HOOC-PhO)) = O=C(O)c1ccc(OCCCCCCCCCC(=O)*)cc1; γGlu = O=C(O)[C@H](CCC(=O)[*:2])N[*:1]; C12 diacid = O=C(O)CCCCCCCCCCC(=O)*; 13‑carboxytridecanoyl = C14 diacid; Butanoyl(4-Ph) = O=C(CCCc1ccccc1)*; 12Ado = NCCCCCCCCCCCC(=O)O; AEEA = NCCOCCOCC(=O)O; Aib = CC(C)(N)C(=O)O; Aoc = NCCCCCCCC(=O)O

Experiments:
human GLP-1 receptor [1] = biological target: T1, human GLP-1 receptor (human, UniProt P43220 24-463); experiment: SPA, 2.0% vs 0.005% HSA
T1 construct: whole, on cells; Used as purified membranes of the transfected hamster cells, not whole cells; also called hGLP-1

human GLP-1 receptor [2] = biological target: T1, human GLP-1 receptor; experiment: SPA, displacement of 125I-GLP-1(7-36)NH2, 0.005% HSA

Binder | ratio IC50 high HSA/IC50 low HSA (human GLP-1 receptor [1]) | IC50 (human GLP-1 receptor [2])
H[Aib]EGTFTSDVSK([AEEA-AEEA-γGlu-Aoc-γGlu-Butanoyl(4-Ph)])YLEEQAAK([AEEA-AEEA-γGlu-Aoc-γGlu-Butanoyl(4-Ph)])EFIAWLVQGRG [GLP-1 derivative of Example 109: [Aib8,Lys18,Glu22,Gln34]-GLP-1-(7-37)-peptide] | > 1 | < 1000 nM
H[Aib]EGTFTSDVSK([AEEA-AEEA-γGlu-12Ado-γGlu-Butanoyl(4-Ph)])YLEEQAAK([AEEA-AEEA-γGlu-12Ado-γGlu-Butanoyl(4-Ph)])EFIAWLVQGRG [GLP-1 derivative of Example 113: [Aib8,Lys18,Glu22,Gln34]-GLP-1-(7-37)-peptide] | > 1 | < 1000 nM
HAEGTFTSDVSK([AEEA-AEEA-γGlu-C12 diacid])YLEEQAVREFIAK([AEEA-AEEA-γGlu-C12 diacid])LVG [GLP-1 derivative of Example 11: [Lys18,Glu22,Val25,Arg26,Lys31,Gly34]-GLP-1-(7-34)-peptide] | > 1 | < 1000 nM
HAEGTFTSDVSK([γGlu-AEEA-AEEA-Decanoyl(10-(4-HOOC-PhO))])YLEEQAARK([γGlu-AEEA-AEEA-Decanoyl(10-(4-HOOC-PhO))])FIAHLVG [GLP-1 derivative of Example 49: [Lys18,Glu22,Arg26,Lys27,His31,Gly34]-GLP-1-(7-34)-peptide] | > 1 | < 1000 nM
HAEGTFTSDVSK([AEEA-AEEA-γGlu-13‑carboxytridecanoyl])YLEEQAVREFIK([AEEA-AEEA-γGlu-13‑carboxytridecanoyl])WLVG [GLP-1 derivative of Example 50: [Lys18,Glu22,Val25,Arg26,Lys30,Gly34]-GLP-1-(7-34)-peptide] | > 1 | < 1000 nM
HAEGTFTSDVSK([AEEA-AEEA-γGlu-9‑(4-carboxyphenoxy)nonanoyl])YLEEQAARK([AEEA-AEEA-γGlu-9‑(4-carboxyphenoxy)nonanoyl])FIAHLVG [GLP-1 derivative of Example 64: [Lys18,Glu22,Arg26,Lys27,His31,Gly34]-GLP-1-(7-34)-peptide] | > 1 | < 1000 nM
HAEGTFTSDVSK([AEEA-AEEA-γGlu-13‑carboxytridecanoyl])YLEEQAVREFIK([AEEA-AEEA-γGlu-13‑carboxytridecanoyl])HLVG [GLP-1 derivative of Example 52: [Lys18,Glu22,Val25,Arg26,Lys30,His31,Gly34]-GLP-1-(7-34)-peptide] | > 1 | < 1000 nM
HAEGTFTSDVSK([AEEA-AEEA-γGlu-13‑carboxytridecanoyl])YLEEQAVRLFIK([AEEA-AEEA-γGlu-13‑carboxytridecanoyl])WLVG [GLP-1 derivative of Example 53: [Lys18,Glu22,Val25,Arg26,Leu27,Lys30,Gly34]-GLP-1-(7-34)-peptide] | > 1 | < 1000 nM
HAEGTFTSDVSK([γGlu-AEEA-γGlu-13‑carboxytridecanoyl])YLEEQAARK([γGlu-AEEA-γGlu-13‑carboxytridecanoyl])FIAHLVG [GLP-1 derivative of Example 59: [Lys18,Glu22,Arg26,Lys27,His31,Gly34]-GLP-1-(7-34)-peptide] | > 1 | < 1000 nM
HAEGTFTSDVSK([AEEA-AEEA-γGlu-C12 diacid])YLEEQAVREFIAHLVK([AEEA-AEEA-γGlu-C12 diacid]) [GLP-1 derivative of Example 66: [Lys18,Glu22,Val25,Arg26,His31]-GLP-1-(7-34)-peptide] | > 1 | < 1000 nM
HAEGTFTSDVSK([γGlu-AEEA-AEEA-13‑carboxytridecanoyl])YLEEQAAREFIAK([γGlu-AEEA-AEEA-13‑carboxytridecanoyl])LVRGRG [GLP-1 derivative of Example 116: [Lys18,Glu22,Arg26,Lys31,Arg34]-GLP-1-(7-37)-peptide] | > 1 | < 1000 nM
H[Aib]EGTFTSDVSK([AEEA-AEEA-γGlu-4‑(4-chlorophenyl)butanoyl])YLEEQAAK([AEEA-AEEA-γGlu-4‑(4-chlorophenyl)butanoyl])EFIAWLVQGRG [GLP-1 derivative of Example 121: [Aib8,Lys18,Glu22,Gln34]-GLP-1-(7-37)-peptide] | > 1 | < 1000 nM
